{"source": "paper PMC3834196", "about": "“High Resolution Crystal Structure of Human β-Glucuronidase Reveals Structural Basis of Lysosome Targeting” (PLoS ONE, 2013)", "target": "the molecule itself", "assay": "crystal structure; vapor diffusion, 50 mM Tris pH 7.5, 15% MPD, 25°C; four monomers (A, B, D, E) in the asymmetric unit; refined to 1.7 Å", "data": [{"protein": "Human β-glucuronidase (enzyme, UniProt P08236 23-651, looked up, N-linked oligosaccharide at Asn173 (six mannose, one β-D-mannose, three N-acetyl glucosamine); single N-acetyl-glucopyranose at Asn272 (as seen in the electron density), β-glucuronidase, human, UniProt P08236; secreted enzyme; the final model holds residues 22 to 631 of each subunit; Homotetramer (subunits A, B, D, E) in the crystal; also called GUS; human GUS; source: CHO-K1, stably transfected, secreted) LQGGMLYPQESPSRECKELDGLWSFRADFSDNRRRGFEEQWYRRPLWESGPTVDMPVPSSFNDISQDWRLRHFVGWVWYEREVILPERWTQDLRTRVVLRIGSAHSYAIVWVNGVDTLEHEGGYLPFEADISNLVQVGPLPSRLRITIAINNTLTPTTLPPGTIQYLTDTSKYPKGYFVQNTYFDFFNYAGLQRSVLLYTTPTTYIDDITVTTSVEQDSGLVNYQISVKGSNLFKLEVRLLDAENKVVANGTGTQGQLKVPGVSLWWPYLMHERPAYLYSLEVQLTAQTSLGPVSDFYTLPVGIRTVAVTKSQFLINGKPFYFHGVNKHEDADIRGKGFDWPLLVKDFNLLRWLGANAFRTSHYPYAEEVMQMCDRYGIVVIDECPGVGLALPQFFNNVSLHHHMQVMEEVVRRDKNHPAVVMWSVANEPASHLESAGYYLKMVIAHTKSLDPSRPVTFVSNSNYAADKGAPYVDVICLNSYYSWYHDYGHLELIQLQLATQFENWYKKYQKPIIQSEYGAETIAGFHQDPPLMFTEEYQKSLLEQYHLGLDQKRRKYVVGELIWNFADFMTEQSPTRVLGNKKGIFTRQRQPKSAAFLLRERYWKIANETRYPHSVAKSQCLENSLFT", "values": [{"measurement": "stoichiometry N", "result": 4}]}]}
